The target of the series is T1, arginine vasopressin (AVP) (UniProt P01185 20-28).
T1 chain: CYFQNCPRG
As to the kind of experiment: bead capture, thermal elution, MALDI-TOF MS.

B1: ATP-specific aptamer (control) (ssDNA)
DNA: ACCTGGGGGAGTATTGCGGAGGAAGGTAAAAAAA
Consider B1, for which the binding result is reported as “no binding”.

Values taken from PMC5228624.
